Experiments:
[1] = target: T1, human trypsin 1 with serine to alanine mutation (including a His tag at C terminus) (human, UniProt P07477 24-247); assay: SPR (Biacore), antibody captured on Protein A chip, single-cycle kinetics, 25 C
T1 construct: also called Trypsin 1 S to A
Description: (§1) Antibody binding kinetic experiments via Biacore were performed to screen for anti-trypsin 1/trypsin 2 antibodies having high affinity to the respective targets. All screening assays were performed at 25 C. The running buffer used was 20 mM HEPES, 300 mM NaCl, 1 mM CaCl₂, 0.01% Tween-20, pH 7.5. Antibodies (1 ug/mL) were captured on Fc2-4 of a Series S ProteinA Sensor Chip (Cytiva) flowing at 10 uL/min for 30 s. Kinetics measurements were made in single-cycle kinetics mode with a series of 4-5 concentrations with top concentration of 10-200 nM and serial dilution 4-fold. Contact time was typically 180-300 s and dissociation time ranged from 300-3600 s. Flow rate of 30 uL/min was typically used. The sensor chip was regenerated with 10 mM glycine, pH 1.5 with a contact time of 30 s flowing at 50 uL/min.

[2] = target: T2, human trypsin 2 with serine to alanine mutation (including a His tag at C terminus) (human, UniProt P07478 25-247, limits assumed); assay: as above
T2 construct: also called Trypsin 2 S to A
Description: as §1

[3] = target: human PRSS1 (R&D Systems), activated with enterokinase (human, UniProt P07477 24-247); assay: cell-based or functional assay
[4] = target: PRSS2 (R&D Systems), activated with enterokinase (human, UniProt P07478 24-247); assay: cell-based or functional assay
Native Trypsin (abcam) = assay: cell-based or functional assay

Chain of PRSS2 (R&D Systems), activated with enterokinase (P07478 24-247 limits assumed): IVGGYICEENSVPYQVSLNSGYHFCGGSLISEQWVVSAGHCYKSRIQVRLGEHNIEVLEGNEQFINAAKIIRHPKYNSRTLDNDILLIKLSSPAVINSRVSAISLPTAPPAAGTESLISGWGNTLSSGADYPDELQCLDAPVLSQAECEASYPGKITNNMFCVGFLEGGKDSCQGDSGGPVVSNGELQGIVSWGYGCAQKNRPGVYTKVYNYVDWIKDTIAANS
T2 sequence (P07478 other isoform, or with tags, fused parts or gaps limits assumed): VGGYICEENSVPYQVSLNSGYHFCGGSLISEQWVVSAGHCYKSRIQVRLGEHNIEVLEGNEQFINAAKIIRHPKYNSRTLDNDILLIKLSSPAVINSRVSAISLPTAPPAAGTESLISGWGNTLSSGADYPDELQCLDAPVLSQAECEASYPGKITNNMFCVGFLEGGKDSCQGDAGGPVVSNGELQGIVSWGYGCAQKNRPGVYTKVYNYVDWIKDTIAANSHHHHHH

B1: Trypsin 1/Trypsin 2-Dual-L3-Ab1 (antibody, V domains shown)
VH: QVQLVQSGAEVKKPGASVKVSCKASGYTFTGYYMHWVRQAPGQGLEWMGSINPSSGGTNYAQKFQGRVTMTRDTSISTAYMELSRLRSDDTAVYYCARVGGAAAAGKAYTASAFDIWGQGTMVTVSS
VL: EIVMTQSPATLSVSPGERATLSCRASQSVGSNLAWYQQKPGQAPRLLIYGASTRATGIPARFSGSGSGTEFTLTISSLQSEDFAVYYCQQFHNWPPLTFGGGTKVEIK
[1]
  Kd: 0.0177 nM
[2]
  Kd: 0.159 nM
[3]
  IC50 Against 1 nM hTryp-1: 5 nM
[4]
  IC50 Against 1 nM hTryp-2: 16 nM

B2: Trypsin 1/Trypsin 2-Dual-L5-Ab1 (antibody, V domains shown)
VH: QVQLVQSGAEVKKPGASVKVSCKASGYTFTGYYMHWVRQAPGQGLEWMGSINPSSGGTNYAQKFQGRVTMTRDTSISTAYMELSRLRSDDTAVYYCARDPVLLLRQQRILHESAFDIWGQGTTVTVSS
VL: EIVMTQSPATLSVSPGERATLSCRASQSVGSNLAWYQQKPGQAPRLLIYGASTRATGIPARFSGSGSGTEFTLTISSLQSEDFAVYYCQQFHNWPPLTFGGGTKVEIK
[1]
  Kd: 0.151 nM
[2]
  Kd: 0.227 nM
[3]
  IC50 Against 1 nM hTryp-1: 45 nM
[4]
  IC50 Against 1 nM hTryp-2: 23 nM

B3: Trypsin 1/Trypsin 2-Dual-L3-Ab2 (antibody, V domains shown)
VH: QVQLVQSGAEVKKPGASVKVSCKASGYTFTDHYMHWVRQAPGQGLEWMGAINPSSGGTAYAQKFQGRVTMTRDTSISTAYMELSRLRSDDTAVYYCARVGGAARVGKAYTASAFDIWGQGTMVTVSS
VL: EIVMTQSPATLSVSPGERATLSCRASQSVGSNLAWYQQKPGQAPRLLIYGASTRATGIPARFSGSGSGTEFTLTISSLQSEDFAVYYCQQFHNWPPLTFGGGTKVEIK
[1]
  Kd: 0.00562 nM
[2]
  Kd: 0.0292 nM
[3]
  IC50 Against 1 nM hTryp-1: 2.75 nM
Native Trypsin (abcam)
  IC50 Against 0.25 nM Native Trypsin: 5.95 nM
[4]
  IC50 Against 1 nM hTryp-2: 4.29 nM

B4: Trypsin 1/Trypsin 2-Dual-L1-Ab1 (antibody, V domains shown)
VH: EVQLLESGGGLVQPGGSLRLSCAASGFTFSSYAMSWVRQAPGKGLEWVSAISASGGSTYYADSVKGRFTISRDNSKNTLYLQMNSLRAEDTAVYYCARGSPIGYSYARVSYYYYMDVWGKGTTVTVSS
VL: DIQMTQSPSSVSASVGDRVTITCRASQGISRWLAWYQQKPGKAPKLLIYAASSLQSGVPSRFSGSGSGTDFTLTISSLQPEDFATYYCQQGNSFPLTFGGGTKVEIK
[1]
  Kd: 2.54 nM
[2]
  Kd: 0.763 nM
[3]
  IC50 Against 1 nM hTryp-1: 63 nM
[4]
  IC50 Against 1 nM hTryp-2: 79 nM

B5: Trypsin 1/Trypsin 2-Dual-L4-Ab2 (antibody, V domains shown)
VH: QVQLVQSGAEVKKPGASVKVSCKASGYTFTDYAISWVRQAPGQGLEWMGWISASTADTNYAQKLQGRVTMTTDTSTSTAYMELRSLRSDDTAVYYCARGDEVVGKMTYYYGMDVWGQGTTVTVSS
VL: DIQMTQSPSSVSASVGDRVTITCRASQGISRWLAWYQQKPGKAPKLLIYAASSLQSGVPSRFSGSGSGTDFTLTISSLQPEDFATYYCQQANSFPITFGGGTKVEIK
[1]
  Kd: < 0.01 nM
[2]
  Kd: 0.0372 nM
[3]
  IC50 Against 1 nM hTryp-1: 2.07 nM
Native Trypsin (abcam)
  IC50 Against 0.25 nM Native Trypsin: 5.51 nM
[4]
  IC50 Against 1 nM hTryp-2: 2.03 nM

B6: Trypsin 1/Trypsin 2-Dual-L4-Ab5 (antibody, V domains shown)
VH: QVQLVQSGAEVKKPGASVKVSCKASGYTFTDYAISWVRQAPGQGLEWMGWISASTADTNYAQKLQGRVTMTTDTSTSTAYMELRSLRSDDTAVYYCARQDEVVGKMTYYIGTDVWGQGTTVTVSS
VL: DIQMTQSPSSVSASVGDRVTITCRASQGISRWLAWYQQKPGKAPKLLIYAASSLQSGVPSRFSGSGSGTDFTLTISSLQPEDFATYYCQQANSFPITFGGGTKVEIK
[1]
  Kd: 0.00465 nM
[2]
  Kd: 0.0274 nM
[3]
  IC50 Against 1 nM hTryp-1: 2.4 nM
[4]
  IC50 Against 1 nM hTryp-2: 2.7 nM

B7: Trypsin 1/Trypsin 2-Dual-L4-Ab4 (antibody, V domains shown)
VH: QVQLVQSGAEVKKPGASVKVSCKASGYTFTDYAISWVRQAPGQGLEWMGWISASTADTNYAQKLQGRVTMTTDTSTSTAYMELRSLRSDDTAVYYCARGTEVVGKMTVYLGMDVWGQGTTVTVSS
VL: DIQMTQSPSSVSASVGDRVTITCRASQGISRWLAWYQQKPGKAPKLLIYAASSLQSGVPSRFSGSGSGTDFTLTISSLQPEDFATYYCQQANSFPITFGGGTKVEIK
[1]
  Kd: < 0.01 nM
[2]
  Kd: 0.0206 nM
[3]
  IC50 Against 1 nM hTryp-1: 2.05 nM
Native Trypsin (abcam)
  IC50 Against 0.25 nM Native Trypsin: 5.48 nM
[4]
  IC50 Against 1 nM hTryp-2: 2.01 nM

B8: Trypsin 1/Trypsin 2-Dual-L4-Ab1 (antibody, V domains shown)
VH: QVQLVQSGAEVKKPGASVKVSCKASGYTFTSYGISWVRQAPGQGLEWMGWISAYSGDTNYAQKLQGRVTMTTDTSTSTAYMELRSLRSDDTAVYYCARGDEVVGKMTYYYGMDVWGQGTTVTVSS
VL: DIQMTQSPSSVSASVGDRVTITCRASQGISRWLAWYQQKPGKAPKLLIYAASSLQSGVPSRFSGSGSGTDFTLTISSLQPEDFATYYCQQANSFPITFGGGTKVEIK
[1]
  Kd: 0.0809 nM
[2]
  Kd: 0.547 nM
[3]
  IC50 Against 1 nM hTryp-1: 1.8 nM
[4]
  IC50 Against 1 nM hTryp-2: 14 nM

B9: Trypsin 1/Trypsin 2-Dual-L4-Ab3 (antibody, V domains shown)
VH: QVQLVQSGAEVKKPGASVKVSCKASGYTFTDYAISWVRQAPGQGLEWMGWISASTADTNYAQKLQGRVTMTTDTSTSTAYMELRSLRSDDTAVYYCARGDEVVGKRTYYIGMDVWGQGTTVTVSS
VL: DIQMTQSPSSVSASVGDRVTITCRASQGISRWLAWYQQKPGKAPKLLIYAASSLQSGVPSRFSGSGSGTDFTLTISSLQPEDFATYYCQQANSFPITFGGGTKVEIK
[1]
  Kd: 0.00841 nM
[2]
  Kd: 0.0451 nM
[3]
  IC50 Against 1 nM hTryp-1: 2.31 nM
Native Trypsin (abcam)
  IC50 Against 0.25 nM Native Trypsin: 4.43 nM
[4]
  IC50 Against 1 nM hTryp-2: 2.01 nM

B10: Trypsin 1/Trypsin 2-Dual-L1-Ab2 (antibody, V domains shown)
VH: EVQLLESGGGLVQPGGSLRLSCAASGFTFGDYAMWWVRQAPGKGLEWVSAISASGDVTYYADSVKGRFTISRDNSKNTLYLQMNSLRAEDTAVYYCARGSLIGYSYARVSYYYYSDVWGKGTTVTVSS
VL: DIQMTQSPSSVSASVGDRVTITCRASQGISRWLAWYQQKPGKAPKLLIYAASSLQSGVPSRFSGSGSGTDFTLTISSLQPEDFATYYCQQGWSFPLTFGGGTKVEIK
[1]
  Kd: < 0.01 nM
[2]
  Kd: < 0.01 nM
[3]
  IC50 Against 1 nM hTryp-1: 3.7 nM
Native Trypsin (abcam)
  IC50 Against 0.25 nM Native Trypsin: 7.98 nM
[4]
  IC50 Against 1 nM hTryp-2: 5.33 nM

B11: Trypsin 1/Trypsin 2-Dual-L2-Ab4 (antibody, V domains shown)
VH: QVQLQESGPGLVKPSETLSLTCTVSGGSISSHYWHWIRQPAGKGLEWIGRIHTSGSTFYNPSLKSRVTMSVDTSKNQFSLKLSSVTAADTAVYYCARDLTNYGWSKSIRFYGMDVWGQGTTVTVSS
VL: DIQMTQSPSSLSASVGDRVTITCQASQDISNYLNWYQQKPGKAPKLLIYDASNLETGVPSRFSGSGSGTDFTFTISSLQPEDIATYYCQQTDNFITFGGGTKVEIK
[1]
  Kd: < 0.01 nM
[2]
  Kd: 0.00904 nM
[3]
  IC50 Against 1 nM hTryp-1: 3.71 nM
Native Trypsin (abcam)
  IC50 Against 0.25 nM Native Trypsin: 4.97 nM
[4]
  IC50 Against 1 nM hTryp-2: 5.6 nM

B12: Trypsin 1/Trypsin 2-Dual-L2-Ab1 (antibody, V domains shown)
VH: QVQLQESGPGLVKPSETLSLTCTVSGGSISSYYWSWIRQPAGKGLEWIGRIYTSGSTNYNPSLKSRVTMSVDTSKNQFSLKLSSVTAADTAVYYCARDLTNYGSGKSIRFYGMDVWGQGTTVTVSS
VL: DIQMTQSPSSLSASVGDRVTITCQASQDISNYLNWYQQKPGKAPKLLIYDASNLETGVPSRFSGSGSGTDFTFTISSLQPEDIATYYCQQDDNFITFGGGTKVEIK
[1]
  Kd: 2.61 nM
[2]
  Kd: 2.2 nM
[3]
  IC50 Against 1 nM hTryp-1: 46 nM
[4]
  IC50 Against 1 nM hTryp-2: 79 nM

B13: Trypsin 1/Trypsin 2-Dual-L2-Ab2 (antibody, V domains shown)
VH: QVQLQESGPGLVKPSETLSLTCTVSGGSISSNYWHWIRQPAGKGLEWIGRIHTSGSTFYNPSLKSRVTMSVDTSKNQFSLKLSSVTAADTAVYYCARDITNYGSGKSIRFYPMDVWGQGTTVTVSS
VL: DIQMTQSPSSLSASVGDRVTITCQASQDISNYLNWYQQKPGKAPKLLIYDASNLETGVPSRFSGSGSGTDFTFTISSLQPEDIATYYCQQDDTFITFGGGTKVEIK
[1]
  Kd: 0.000891 nM
[2]
  Kd: 0.00988 nM
[3]
  IC50 Against 1 nM hTryp-1: 2.67 nM
Native Trypsin (abcam)
  IC50 Against 0.25 nM Native Trypsin: 5.51 nM
[4]
  IC50 Against 1 nM hTryp-2: 3.3 nM

B14: Trypsin 1/Trypsin 2-Dual-L2-Ab3 (antibody, V domains shown)
VH: QVQLQESGPGLVKPSETLSLTCTVSGGSISSHYWHWIRQPAGKGLEWIGRIATSGSTYYNPSLKSRVTMSVDTSKNQFSLKLSSVTAADTAVYYCARDLTNYGITKSIRFYGMDVWGQGTTVTVSS
VL: DIQMTQSPSSLSASVGDRVTITCQASQDISNYLNWYQQKPGKAPKLLIYDASNLETGVPSRFSGSGSGTDFTFTISSLQPEDIATYYCQQVDNFITFGGGTKVEIK
[1]
  Kd: 0.0118 nM
[2]
  Kd: 0.0219 nM
[3]
  IC50 Against 1 nM hTryp-1: 2.3 nM
Native Trypsin (abcam)
  IC50 Against 0.25 nM Native Trypsin: 4.63 nM
[4]
  IC50 Against 1 nM hTryp-2: 2.44 nM
